Tests used:
[1] = target: DNA polymerase (pol) β, human wild-type full-length (1–335 aa) (human) (UniProt P06746); test: SPR; Biacore X-100, 25 °C; polβ, ligase IIIα or APTX amine-coupled on CM5; XRCC1 (wild-type or mutants) as analyte, 30 μl/min; 20 mM HEPES pH 7.4, 150 mM NaCl, 3 mM EDTA, 0.005% Surfactant P20; 1:1 (Langmuir) model
[2] = target: DNA polymerase (pol) β, human wild-type full-length (1–335 aa) (human) (UniProt P06746)
[3] = target: DNA ligase IIIα, human wild-type full-length (1–922 aa) (human)
[4] = target: Aprataxin (APTX), human wild-type full-length (human) (UniProt Q7Z2E3); test: SPR; Biacore X-100, 25 °C; polβ, ligase IIIα or APTX amine-coupled on CM5; XRCC1 (wild-type or mutants) as analyte, 30 μl/min; 20 mM HEPES pH 7.4, 150 mM NaCl, 3 mM EDTA, 0.005% Surfactant P20; 1:1 (Langmuir) model
[5] = target: DNA ligase IIIα, human wild-type full-length (1–922 aa) (human); test: as above
[6] = system: DNA ligase IIIalpha (human); test: BLI; conditions: BLI (Octet QKe): 20 mM HEPES pH 7.4, 200 mM NaCl, 0.5% BSA, 0.05% Tween 20, 20 °C, ternary complexes plus 10 mM MgCl2 and 0.1 mM dGTP or 1 mM ATP
[7] = target: DNA ligase IIIalpha;XRCC1 wild-type (human;human) (UniProt P18887); test: BLI; conditions: 10 mM Mg2+, 1 mM ATP; 1:1 ligase/XRCC1; koff 2.0e-4; BLI (Octet QKe): 20 mM HEPES pH 7.4, 200 mM NaCl, 0.5% BSA, 0.05% Tween 20, 20 °C; ternary complexes plus 10 mM MgCl2 and 0.1 mM dGTP or 1 mM ATP
[8] = target: XRCC1 R280H R280H (human) (UniProt P18887); test: BLI; conditions: BLI (Octet QKe): 20 mM HEPES pH 7.4, 200 mM NaCl, 0.5% BSA, 0.05% Tween 20, 20 °C; ternary complexes plus 10 mM MgCl2 and 0.1 mM dGTP or 1 mM ATP
[9] = target: DNA polymerase beta (human) (UniProt P06746); test: BLI; conditions: BLI (Octet QKe): 20 mM HEPES pH 7.4, 200 mM NaCl, 0.5% BSA, 0.05% Tween 20, 20 °C; ternary complexes plus 10 mM MgCl2 and 0.1 mM dGTP or 1 mM ATP
[10] = target: DNA polymerase beta;XRCC1 wild-type (human;human) (UniProt P06746+P18887); test: BLI; conditions: BLI (Octet QKe): 20 mM HEPES pH 7.4, 200 mM NaCl, 0.5% BSA, 0.05% Tween 20, 20 °C; ternary complexes plus 10 mM MgCl2 and 0.1 mM dGTP or 1 mM ATP
[11] = target: XRCC1 wild-type (human) (UniProt P18887); test: BLI; conditions: BLI (Octet QKe): 20 mM HEPES pH 7.4, 200 mM NaCl, 0.5% BSA, 0.05% Tween 20, 20 °C; ternary complexes plus 10 mM MgCl2 and 0.1 mM dGTP or 1 mM ATP
[12] = target: DNA polymerase beta (human) (UniProt P06746); test: BLI; conditions: BLI (Octet QKe): 20 mM HEPES pH 7.4, 200 mM NaCl, 0.5% BSA, 0.05% Tween 20, 20 °C; ternary complexes plus 10 mM MgCl2 and 0.1 mM dGTP or 1 mM ATP; remark: listed apart in the source

Chain of Aprataxin (APTX), human wild-type full-length (human) (Q7Z2E3 whole entry, the tested form may be a part): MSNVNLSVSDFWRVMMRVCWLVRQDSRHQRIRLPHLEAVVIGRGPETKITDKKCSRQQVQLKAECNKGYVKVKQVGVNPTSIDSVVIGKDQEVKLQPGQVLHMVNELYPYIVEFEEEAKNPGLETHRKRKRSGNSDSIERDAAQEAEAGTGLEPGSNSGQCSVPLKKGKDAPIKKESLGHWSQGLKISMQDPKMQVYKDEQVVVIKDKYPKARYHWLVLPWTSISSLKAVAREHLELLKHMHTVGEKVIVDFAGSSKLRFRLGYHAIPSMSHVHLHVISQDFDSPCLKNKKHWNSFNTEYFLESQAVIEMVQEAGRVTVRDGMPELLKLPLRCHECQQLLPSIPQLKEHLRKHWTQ

**Q.** With “XRCC1 cancer-associated variant R399Q (from UniProt P18887 1-633) (natural protein)” as the substance, how does the Kd [1] read?
**A.** The Kd was 5.8 nM.

**Q.** How did the amount of ligation products in the coupled assay (polβ dGTP:C insertion coupled to ligation by ligase IIIα), with against without XRCC1 [2] turn out when “X-ray cross-complementing protein 1 (XRCC1), human wild-type full-length (1–633 aa) (from UniProt P18887 1-633) (natural protein)” was run?
**A.** The amount of ligation products in the coupled assay (polβ dGTP:C insertion coupled to ligation by ligase IIIα), with against without XRCC1 was 2 fold.

**Q.** And the amount of ligation products, nick sealing of nick DNA with 3′-dG:C by ligase IIIα, with against without XRCC1 [3]?
**A.** Its amount of ligation products, nick sealing of nick DNA with 3′-dG:C by ligase IIIα, with against without XRCC1 is 4 fold.

**Q.** And the Kd [4]?
**A.** Its Kd is 374 nM.

**Q.** And the Kd [5]?
**A.** Its Kd is 50.4 nM.

**Q.** And the Kd [1]?
**A.** The Kd was 10.2 nM.

**Q.** How did the Kd [1] turn out when “XRCC1 R109A mutant (from UniProt P18887 1-633) (natural protein)” was run?
**A.** Its Kd is 170 nM.

**Q.** Which results are given for nick DNA with 3'-dG:C?
**A.** Kd ([6]; 10 mM Mg2+, 1 mM ATP, no XRCC1, koff 5.0e-4): 22 nM; Kd ([6]; no ATP): 5 nM; Kd [7]: 6.5 nM; Kd [8]: 140 nM

**Q.** What does the source list for one nucleotide gap DNA, template C?
**A.** Kd [9]: 355 nM; Kd [10]: 30 nM; Kd [8]: 153 nM; Kd [11]: 110 nM; Kd [12]: 5.4 nM

**Q.** Which Kd [1] does the source give for “XRCC1 V86R mutant (from UniProt P18887 1-633) (natural protein)” here?
**A.** The Kd was 284 nM.

Reference: PMC8405949
